B1: Tumor protein 63 (Homo sapiens), Q9H3D4 (parent)
chain: MNFETSRCATLQYCPDPYIQRFVETPAHFSWKESYYRSTMSQSTQTNEFLSPEVFQHIWDFLEQPICSVQPIDLNFVDEPSEDGATNKIEISMDCIRMQDSDLSDPMWPQYTNLGLLNSMDQQIQNGSSSTSPYNTDHAQNSVTAPSPYAQPSSTFDALSPSPAIPSNTDYPGPHSFDVSFQQSSTAKSATWTYSTELKKLYCQIAKTCPIQIKVMTPPPQGAVIRAMPVYKKAEHVTEVVKRCPNHELSREFNEGQIAPPSHLIRVEGNSHAQYVEDPITGRQSVLVPYEPPQVGTEFTTVLYNFMCNSSCVGGMNRRPILIIVTLETRDGQVLGRRCFEARICACPGRDRKADEDSIRKQQVSDSTKNGDGTKRPFRQNTHGIQMTSIKKRRSPDDELLYLPVRGRETYEMLLKIKESLELMQYLPQHTIETYRQQQQQQHQHLLQKQTSIQSPSSYGNSSPPLNKMNSMNKLPSVSQLINPQQRNALTPTTIPDGMGANIPMMGTHMPMAGDMNGLSPTQALPPPLSMPSTSHCTPPPPYPTDCSIVSFLARLGCSSCLDYFTTQGLTTIYQIEHYSMDDLASLKIPEQFRHAIWKGILDHRQLHEFSSPSHLLRTPSSASTVSVGSSETRGERVIDAVRFTLRQTISFPPRDEWNDFNFDMDARRNKQQRIKEEGE

The variants in the assay derive from B1. Conditions: with itch_human ITCH.
Turning to Y543F, the “effect of a mutation on the interaction” value is reported as “disrupting interaction strength”.

These data come from IntAct's records for PubMed 16908849.
